One may read the stoichiometry N as the number of molecules, sites or subunits per partner or assembly.

Assay [1] has as its target soluble gB truncated at amino acid 730, gB(730t) (herpes simplex virus 1 (HSV-1)) (UniProt P06437). Kind of assay: SEC. In general terms: Size exclusion chromatography separates by hydrodynamic size, large species first.
The target in assay [2] is soluble gB truncated at amino acid 739, gB(739t) (herpes simplex virus 1 (HSV-1), strain KOS) (UniProt P06437). Kind of assay: SEC.
Assay [3] has the same target. Kind of assay: native gel or EMSA. In general terms: A gel shift assay detects complexes by their altered migration in electrophoresis.
The target of assay [4] is soluble gB truncated at amino acid 773, gB(773t) (herpes simplex virus 1 (HSV-1), strain KOS) (UniProt P06437). Kind of assay: SEC.
Assay [5] has the same target. As to the kind of experiment: native gel or EMSA.
The target in assay [6] is soluble gB truncated at amino acid 749, gB(749t) (herpes simplex virus 1 (HSV-1), strain KOS) (UniProt P06437). As to the kind of experiment: SEC.
The target is the same in assay [7]. As to the kind of experiment: native gel or EMSA.
Assay [8] has as its target soluble gB truncated at amino acid 759, gB(759t) (herpes simplex virus 1 (HSV-1), strain KOS) (UniProt P06437). Kind of assay: SEC.
Assay [9] has the same target. As to the kind of experiment: native gel or EMSA.

In [1], “soluble gB truncated at amino acid 730, gB(730t) (from UniProt P06437 31-730) (domain or fragment)” showed a stoichiometry N of 3.
On to “soluble gB truncated at amino acid 739, gB(739t) (from UniProt P06437 31-739) (domain or fragment)”, for which the stoichiometry N in [2] and in [3] was 3 each time.
On to “soluble gB truncated at amino acid 773, gB(773t) (from UniProt P06437 31-773) (domain or fragment)”, for which the stoichiometry N in assay [4] and in assay [5] was 3 in each case.
“soluble gB truncated at amino acid 749, gB(749t) (from UniProt P06437 31-749) (domain or fragment)”: the stoichiometry N in [6] and in [7] was 3 each time.
In the case of “soluble gB truncated at amino acid 759, gB(759t) (from UniProt P06437 31-759) (domain or fragment)”, the stoichiometry N in assay [8] and in assay [9] was 3 in each case.

Values taken from PMC3509434.
